The target of assay [1] is T1, recombinant water-soluble 'empty' HLA-DR1 (DRB1*0101) (human).
T1 chain 1: not shown
T1 chain 2: not shown

The target in assay [2] is T2, recombinant water-soluble 'empty' HLA-DR4 (DRB1*0401) (human).
T2 chain 1: not shown
T2 chain 2: not shown

The target of assay [3] is T3, HLA-DR1 on L fibroblasts transfected with HLA-DR1 (L57.23) (human).
T3 chain 1: not shown
T3 chain 2: not shown
The assay is described as follows: cell-based or functional assay.

The target in assay [4] is T4, HLA-DR4 on L fibroblasts transfected with HLA-DR4 (human).
T4 chain 1: not shown
T4 chain 2: not shown
The assay is described as follows: cell-based or functional assay.

The target in assay [5] is T1, recombinant water-soluble 'empty' …. The assay is described as follows: competitive binding ELISA on recombinant HLA-DR1; competitor biotinylated YEAK. (In general: In an ELISA, binding on a coated surface is turned into a signal by an enzyme label.)
Assay [6] has as its target T2, recombinant water-soluble 'empty' …. The assay is described as follows: competitive binding ELISA on recombinant HLA-DR4; competitor biotinylated YEAK.

Read-outs that look alike come from different tables or passages of the source.

Take APKYVKQNTLKLATA (modifications not checked) [HA 306-318 bracketed by alanines at N- and C-terminals, …]: the affinity determined by competition stood at 13 µM in assay [1], 26 µM in assay [2], 3.3 µM in assay [5] and 8.2 µM in assay [6]. In assay [3], this molecule gave an inhibition of the response of 3.19 T cells (IL-2 secretion) greater than 98%. In assay [3], this molecule yielded an inhibition of the response of 19.3 T cells (IL-2 secretion) greater than 95%. Also, in assay [4], the inhibition of the DR4 3838 T cell clone (IL-2 secretion) is less than 60%. The same molecule registered an inhibition of the DR4 D3 T cell clone (IL-2 secretion) in assay [4] of less than 60%.

Source of the values: patent publication US20040006022A1 (Harvard, published 2004).
